8 substances from article PMC3235116 can be followed below.

For data set [1], the target named is wild type Streptococcus pyogenes enolase with an N-terminal hexa-histidine tag (Streptococcus pyogenes) (UniProt P69949). Briefly: AUC; sedimentation velocity of each purified enolase alone, native (data not shown); octamer.
The target is the same in data set [2]. Briefly: AUC; each his-tagged enolase alone in SPR binding buffer (no Mg2+, with EDTA, pH 7.4); octamer to monomers. (In general: SPR reads the build-up and loss of mass on a sensor chip optically.)
Data set [3] concerns P69949. Described as above.
Data set [4] deals with Streptococcus pyogenes enolase F137L/E363G with an N-terminal hexa-histidine tag (Streptococcus pyogenes) (UniProt P69949). Briefly: AUC; sedimentation velocity of each purified enolase alone, native (data not shown); octamer.
Data set [5] shares this target. Briefly: AUC; each his-tagged enolase alone in SPR binding buffer (no Mg2+, with EDTA, pH 7.4); octamer to monomers.
The target of data set [6] is canine plasminogen (canine). Briefly: SPR; dPgn amine-coupled at pH 4.5 to CM4 chip (340 RU); titration with F137L/E363G Str enolase 0-500 nM (2-fold series), 25°C.
Data set [7] concerns the target canine plasminogen (canine). Briefly: ITC; Str enolase brought to pH 9 (precipitated), dialysed back to pH 6.9, 30% activity left; enolase titrated into dPgn, close to 20°C. On the technique in general: ITC needs no label: the signal is the heat of the interaction.
In data set [8] the target is Streptococcus pyogenes enolase F137L/E363G with an N-terminal hexa-histidine tag (Streptococcus pyogenes) (UniProt P69949). Briefly: AUC; F137L/E363G enolase incubated at pH 4.5 for one hour and dialysed overnight against SPR binding buffer; soluble fraction; octamer to monomers.
Data set [9] has as its target fluorescently labeled, catalytically inactive derivative of human plasminogen (5'IAF-Pg S741C) (human). Briefly: fluorescence polarisation; Str enolase first brought to pH 4.5, then diluted into phosphate buffer pH 6.7 (non-native enolase); labelled hPgn 140 nM, Str enolase 0.057 mM, 20°C. A general note: In fluorescence polarisation assays a small probe gives low polarisation when free and higher when bound to something large.

Data set [10] addresses canine plasminogen (canine). Briefly: co-sedimentation; dPgn made to precipitate with reductant (0.2 M DTT) in the presence of native soluble Str enolase; centrifuged, pellets and supernates on SDS-PAGE; initial dPgn:enolase monomer 1:1 or 1:3.
The target of data set [11] is wild type Streptococcus pyogenes enolase with no tag (Streptococcus pyogenes) (UniProt P69949). Briefly: AUC; sedimentation velocity of each purified enolase alone, native (data not shown); octamer.
Data set [12] deals with P69949. Briefly: AUC; F137L/E363G enolase incubated at pH 4.5 for one hour and dialysed overnight against SPR binding buffer; soluble fraction; octamer to monomers.
For data set [13], the target named is wild type Streptococcus pyogenes enolase with a C-terminal deca-histidine tag (Streptococcus pyogenes) (UniProt P69949). The data set can be described thus: AUC; sedimentation velocity of each purified enolase alone, native (data not shown); octamer.
For data set [14] the target is unchanged. Briefly: AUC; each his-tagged enolase alone in SPR binding buffer (no Mg2+, with EDTA, pH 7.4); octamer to monomers.
For data set [15], the target named is Streptococcus pyogenes enolase F137L/E363G with an N-terminal hexa-histidine tag (Streptococcus pyogenes) (UniProt P69949). Briefly: SPR; N-terminal His6 F137L/E363G Str enolase captured at neutral pH on Ni-NTA chip (~150 RU); single-cycle titration 15-2000 nM.
For data set [16] the target is unchanged. Briefly: ITC; Str enolase brought to pH 4.5 (precipitated), dialysed to pH 6.9, dissolved in 27% urea, dialysed again at pH 6.9, about 30% specific activity left; enolase titrated with dPgn, close to 20°C.
The target is the same in data set [17]. The data set can be described thus: co-sedimentation; Str enolase (300 nM) adsorbed to azolectin (phosphatidyl choline) micelles, dPgn 1000 nM, 10 mM potassium phosphate, 100 mM NaCl, 4°C three days, 20 000 rpm 2 h, SDS-PAGE of pellets and supernates.

“And” between values parts separate entries of the source, which are not always exact repeats. Equal values may be shown once. A value given as a limit tells only on which side of the number the result lay.

As to “wild type Streptococcus pyogenes enolase with an N-terminal hexa-histidine tag (from UniProt P69949 1-435) (enzyme)”, the values for the % octameric in [1] and in [2] were over 90% and 88%, respectively. In [1], the stoichiometry N (in general, the number of molecules, sites or subunits per partner or assembly) is 8.
Turning to “wild type Streptococcus pyogenes enolase with an N-terminal hexa-histidine tag”, the % monomeric in [3] stood at 5%.
“wild type Streptococcus pyogenes enolase with a C-terminal deca-histidine tag” registered a % monomeric in [3] of 18%.
In [4], “Streptococcus pyogenes enolase F137L/E363G with an N-terminal hexa-histidine tag (from UniProt P69949 1-435) (enzyme)” registered a % octameric of over 90% and a stoichiometry N of 8. In [5], the % octameric is 57%. Further, the half saturation of all the association phases in data set [6] amounted to 50 nM. The same substance gave a stoichiometry N (sites per enolase monomer) in data set [7] of 0.18. The substance also registered a % octameric in [8] of 19%. Moreover, the P (polarization) in data set [9] came out at 0.43. In data set [10], the % of the precipitated protein that was Str enolase (initial ratio 1:1) worked out at 12%, the % of the precipitated protein that was Str enolase (initial ratio 1:3) amounted to 25%, the dPgn:enolase ratio in the pellet (initial ratio 1:1) (dPgn per enolase) was 6 and the dPgn:enolase ratio in the pellet (initial ratio 1:3) (dPgn per enolase) turned out to be 3.
In data set [11], “wild type Streptococcus pyogenes enolase with no tag (from UniProt P69949 1-435) (enzyme)” yielded a % octameric of over 90% and a stoichiometry N of 8.
As for “Streptococcus pyogenes enolase F137L/E363G with an N-terminal hexa-histidine tag”, the % monomeric in [3] was found to be 36%; in [12] it was 75% was monomeric.
On to “wild type Streptococcus pyogenes enolase with a C-terminal deca-histidine tag (from UniProt P69949 1-435) (enzyme)”, for which the % octameric was over 90% in data set [13] and 68% in data set [14]. This substance also had a stoichiometry N in [13] of 8.
As to canine plasminogen (natural protein), the stoichiometry N (dPgn per enolase monomer) in data set [15] came out at 1; in [16], 0.34. Further, in data set [17], the amount of dPgn relative to Str enolase that co-sedimented (Str enolase per dPgn (as 1:x)) is 1 and 1.2.
